Results reported in US4546077A, “Leucine dehydrogenase and a process for production thereof” (Unitika Ltd., priority 1982, dated 1985).

What was measured:
[1] = substrate: CC(C)C[C@H](N)C(=O)O; assay: Michaelis constants of leucine dehydrogenase; assay type: biochemical; details: other: purified leucine dehydrogenase from Bacillus stearothermophilus; pH 11.0; 55.0 °C
Procedure: (§1) Next, physico-chemical properties of the thus obtained leucine dehydrogenase of the present invention are shown below, wherein the leucine dehydrogenase was obtained from Bacillus stearothermophilus.
(§2) A solution mixture containing 1.25 mM NAD and 10 mM L-leucine in a […] glycine-KCl-KOH buffer solution having pH 11 was prepared. A suitable amount of a leucine dehydrogenase was added to the solution mixture and the increment of a reduced type NAD per unit time at 55° C. was measured as an increment of the absorbancy at 340 nm. The amount of the enzyme which made it possible to increase the absorbancy of 1μ mole of NADH at 340 nm per minute was set at 1 unit.

[2] = substrate: NC(=O)c1ccc[n+]([C@@H]2O[C@H](COP(=O)([O-])OP(=O)(O)OC[C@H]3O[C@@H](n4cnc5c(N)ncnc54)[C@H](O)[C@@H]3O)[C@@H](O)[C@H]2O)c1; assay: Michaelis constants of leucine dehydrogenase; assay type: biochemical; details: other: purified leucine dehydrogenase from Bacillus stearothermophilus; pH 11.0; 55.0 °C
Procedure: as §1, §2

B1: leucine dehydrogenase obtained from Bacillus stearothermophilus (Geobacillus stearothermophilus) (protein)
chain: MELFKYMETYDYEQVLFCQDKESGLKAIIAIHDTTLGPALGGTRMWMYNSEEEALEDALRLARGMTYKNAAAGLNLGGGKTVIIGDPRKDKNEAMFRAFGRFIQGLNGRYITAEDVGTTVADMDIIYQETDYVTGISPEFGSSGNPSPATAYGVYRGMKAAAKEAFGSDSLEGKVVAVQGVGNVAYHLCRHLHEEGAKLIVTDINKEVVARAVEEFGAKAVDPNDIYGVECDIFAPCALGGIINDQTIPQLKAKVIAGSADNQLKEPRHGDIIHEMGIVYAPDYVINAGGVINVADELYGYNRERAMKKIEQIYDNIEKVFAIAKRDNIPTYVAADRMAEERIETMRKARSPFLQNGHHILSRRRAR
notes: the leucine dehydrogenase was obtained from Bacillus stearothermophilus; endogenous in cells; host or cells: Bacillus stearothermophilus (enzyme isolated and purified from the cultured bacteria)
B1 was tested, and the Km [1] was 1500 µM and the Km [2] was 400 µM.
